This note sets out measurements from patent publication US20050080013A1 (Pfizer, published 2005).

Non-standard residues stand in square brackets, D forms with d. No end group written: not given here. Orn = NCCC[C@H](N)C(=O)O

T1: lecithin:cholesterol acyltransferase (LCAT), purified from human plasma (human, UniProt P04180 25-440)
T1 sequence (looked up): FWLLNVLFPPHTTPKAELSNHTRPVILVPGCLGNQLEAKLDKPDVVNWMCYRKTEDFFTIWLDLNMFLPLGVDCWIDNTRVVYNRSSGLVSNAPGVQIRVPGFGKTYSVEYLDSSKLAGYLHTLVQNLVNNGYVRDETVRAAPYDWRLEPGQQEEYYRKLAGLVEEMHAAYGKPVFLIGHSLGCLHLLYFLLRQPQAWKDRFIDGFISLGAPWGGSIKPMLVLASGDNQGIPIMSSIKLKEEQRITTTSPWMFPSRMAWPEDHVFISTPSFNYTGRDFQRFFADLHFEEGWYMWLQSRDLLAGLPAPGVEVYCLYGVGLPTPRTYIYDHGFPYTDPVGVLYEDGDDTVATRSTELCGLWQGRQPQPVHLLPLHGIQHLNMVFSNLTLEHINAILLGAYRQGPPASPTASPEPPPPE

B1: peptide 169 (peptide)
peptide: PVLELFENLLEKLLDALQKKLK
B2: peptide 206 (peptide)
peptide: Ac-PLLELLKELLEELKQKLK-NH2
B3: peptide 198 (peptide)
peptide: Ac-GVLDLFRELLEELKQKLK-NH2
B4: peptide 205 (peptide)
peptide: Ac-PVLDLFREWLEELKQKLK-NH2
B5: peptide 181 (peptide)
peptide: PVLELFENLLERWLDALQKKLK
B6: peptide 176 (peptide)
peptide: PVLELWENLLERLLDALQKKLK
B7: peptide 203 (peptide)
peptide: Ac-AVLDLFRELLEELKQKLK-NH2
B8: peptide 18 (peptide)
peptide: GVLDLFRELLNELLEALKQKLK
B9: peptide 185 (peptide)
peptide: PVLELFENLLERLLDALQ[Orn][Orn]L[Orn]
B10: peptide 15 (peptide)
peptide: PVLDLFRELWNELLEALKQKLK
B11: peptide 17 (peptide)
peptide: PVLELFKELLQELLEALKQKLK
B12: peptide 178 (peptide)
peptide: PVLELFDNLLEKLLEALQKKLR
B13: peptide 195 (peptide)
peptide: Ac-PVLELFKELLEELKQKLK-NH2
B14: peptide 199 (peptide)
peptide: Ac-PVLDLFRELWEELKQKLK-NH2
B15: peptide 171 (peptide)
peptide: PVLELFENLLEKLLDLLQKKLK
B16: peptide 164 (peptide)
peptide: PVLELFENLLERLLDAWQKKLK
B17: peptide 183 (peptide)
peptide: PLLELFENLLEKLLDALQKKLK
B18: peptide 162 (peptide)
peptide: PVLELFENWLERLLDALQKKLK
B19: peptide 204 (peptide)
peptide: Ac-PVLDFFRELLEELKQKLK-NH2
B20: peptide 16 (peptide)
peptide: PVLDLLRELLNELLEALKQKLK
B21: peptide 194 (peptide)
peptide: Ac-PVLELFRELLEELKQKLK-NH2
B22: peptide 180 (peptide)
peptide: PVLELFDNLLDKLLDALQKKLR
B23: peptide 175 (peptide)
peptide: PVLELFENLLERLLELLNKKLK
B24: peptide 163 (peptide)
peptide: PVLELFENLLERLWDALQKKLK
B25: peptide 184 (peptide)
peptide: PVLELFLNLLERLLDAWQKKLK
B26: peptide 193 (peptide)
peptide: Ac-PVLDLFRELLEELKQKLK-NH2
B27: peptide 200 (peptide)
peptide: Ac-NVLDLFRELLEELKQKLK-NH2
B28: peptide 170 (peptide)
peptide: PVLELFENLLE[Orn]LLDALQ[Orn][Orn]L[Orn]
B29: peptide 182 (peptide)
peptide: PVLELFENLLEKLLEALQKKLK
B30: peptide 14 (peptide)
peptide: PVLDLFRELLNELLEALXQXLX
modifications: Orn (O) at 18, 20, 22
B31: peptide 168 (peptide)
peptide: PVLELFEQLLEKLLDALQKKLK
B32: peptide 192 (peptide)
peptide: Ac-PVLDLFKELLEELKQKLK-NH2
B33: peptide 174 (peptide)
peptide: [dP][dV][dL][dE][dL][dF][dE][dN][dL][dL][dE][dR][dL][dL][dD][dA][dL][dQ][dK][dK][dL][dK]
B34: peptide 197 (peptide)
peptide: Ac-PLLDLFRELLEELKQKLK-NH2
B35: peptide 210 (peptide)
peptide: PVLDLFRELLEELKQKLK
B36: peptide 165 (peptide)
peptide: PVLELFENLLERLLDLLQKKLK
B37: peptide 167 (peptide)
peptide: PVLELFENGLERLLDALQKKLK
B38: peptide 211 (peptide)
peptide: Ac-PVLDLFRELLEEL[Orn]Q[Orn]L[Orn]-NH2
SMILES: CC(=O)N1CCC[C@H]1C(=O)N[C@H](C(=O)N[C@@H](CC(C)C)C(=O)N[C@@H](CC(=O)O)C(=O)N[C@@H](CC(C)C)C(=O)N[C@@H](Cc1ccccc1)C(=O)N[C@@H](CCCNC(=N)N)C(=O)N[C@@H](CCC(=O)O)C(=O)N[C@@H](CC(C)C)C(=O)N[C@@H](CC(C)C)C(=O)N[C@@H](CCC(=O)O)C(=O)N[C@@H](CCC(=O)O)C(=O)N[C@@H](CC(C)C)C(=O)N[C@@H](CCCN)C(=O)N[C@@H](CCC(N)=O)C(=O)N[C@@H](CCCN)C(=O)N[C@@H](CC(C)C)C(=O)N[C@@H](CCCN)C(N)=O)C(C)C
B39: peptide 201 (peptide)
peptide: Ac-PLLDLFKELLEELKQKLK-NH2
B40: peptide 196 (peptide)
peptide: Ac-PVLDLFRELLEELKNKLK-NH2
B41: peptide 207 (peptide)
peptide: Ac-PVLELLKELLEELKQKLK-NH2
B42: peptide 208 (peptide)
peptide: Ac-PALELFKDLLEELRQRLK-NH2
B43: peptide 202 (peptide)
peptide: Ac-PALELFKDLLEELRQKLR-NH2
B44: peptide 172 (peptide)
peptide: PVLELFLNLLERLGDALQKKLK
B45: peptide 191 (peptide)
peptide: Ac-PVLDLLRELLEELKQKLK-NH2
B46: peptide 209 (peptide)
peptide: PVLDLFRELLNELLQKLK
B47: peptide 177 (peptide)
peptide: GVLELFLNLLERLLDALQKKLK
B48: peptide 166 (peptide)
peptide: PVLELFLNLLEKLLDALQKKLK
B49: peptide 179 (peptide)
peptide: PVLELFDNLLERLLDALQKKLK
B50: peptide 173 (peptide)
peptide: PVLDLFDNLLDRLLDLLNKKLK

The target in this experiment is T1, lecithin:cholesterol acyltransferase …. Nature of the experiment: cell-based or functional assay.
For B1, the “ACTIVITY (%) LCAT” value was 17%.

Consider B2, for which the “ACTIVITY (%) LCAT” value amounted to 57%.

With B3, the “ACTIVITY (%) LCAT” value worked out at 80%.

On to B4, for which the “ACTIVITY (%) LCAT” value was determined as 60%.

Take B5: the “ACTIVITY (%) LCAT” value was 8%.

Take B6: the “ACTIVITY (%) LCAT” value is 11%.

For the molecule B7, the “ACTIVITY (%) LCAT” value amounted to 66%.

As to B8, the “ACTIVITY (%) LCAT” value amounted to 58%.

Consider B9, for which the “ACTIVITY (%) LCAT” value turned out to be 3%.

As for B10, the “ACTIVITY (%) LCAT” value was determined as 60%.

As for B11, the “ACTIVITY (%) LCAT” value was found to be 59%.

Turning to B12, the “ACTIVITY (%) LCAT” value was 9%.

For B13, the “ACTIVITY (%) LCAT” value worked out at 87%.

Take B14: the “ACTIVITY (%) LCAT” value was determined as 76%.

Consider B15, for which the “ACTIVITY (%) LCAT” value was 16%.

Consider B16, for which the “ACTIVITY (%) LCAT” value was determined as 24%.

For B17, the “ACTIVITY (%) LCAT” value was found to be 6%.

On to B18, for which the “ACTIVITY (%) LCAT” value came out at 27%.

For B19, the “ACTIVITY (%) LCAT” value came out at 63%.

Turning to B20, the “ACTIVITY (%) LCAT” value stood at 59%.

For B21, the “ACTIVITY (%) LCAT” value was found to be 88%.

B22: the “ACTIVITY (%) LCAT” value was determined as 8%.

With B23, the “ACTIVITY (%) LCAT” value was found to be 13%.

Consider B24, for which the “ACTIVITY (%) LCAT” value was 26%.

Consider B25, for which the “ACTIVITY (%) LCAT” value was 4%.

Take B26: the “ACTIVITY (%) LCAT” value is 96%.

For the molecule B27, the “ACTIVITY (%) LCAT” value stood at 75%.

Consider B28, for which the “ACTIVITY (%) LCAT” value amounted to 17%.

Regarding B29, the “ACTIVITY (%) LCAT” value came to 7%.

For the molecule B30, the “ACTIVITY (%) LCAT” value was found to be 61%.

On to B31, for which the “ACTIVITY (%) LCAT” value amounted to 17%.

With B32, the “ACTIVITY (%) LCAT” value was found to be 100%.

Turning to B33, the “ACTIVITY (%) LCAT” value came to 13%.

With B34, the “ACTIVITY (%) LCAT” value came to 81%.

Consider B35, for which the “ACTIVITY (%) LCAT” value was found to be 46%.

B36: the “ACTIVITY (%) LCAT” value stood at 23%.

On to B37, for which the “ACTIVITY (%) LCAT” value amounted to 18%.

For the molecule B38, the “ACTIVITY (%) LCAT” value was found to be 45%.

In the case of B39, the “ACTIVITY (%) LCAT” value came to 74%.

Take B40: the “ACTIVITY (%) LCAT” value was found to be 81%.

Regarding B41, the “ACTIVITY (%) LCAT” value worked out at 50%.

Take B42: the “ACTIVITY (%) LCAT” value is 48%.

With B43, the “ACTIVITY (%) LCAT” value stood at 70%.

For the molecule B44, the “ACTIVITY (%) LCAT” value was found to be 16%.

For the molecule B45, the “ACTIVITY (%) LCAT” value came out at 100%.

As for B46, the “ACTIVITY (%) LCAT” value worked out at 47%.

With B47, the “ACTIVITY (%) LCAT” value worked out at 10%.

As to B48, the “ACTIVITY (%) LCAT” value turned out to be 22%.

As for B49, the “ACTIVITY (%) LCAT” value is 8%.

Regarding B50, the “ACTIVITY (%) LCAT” value is 15%.
